Among the data in patent US20030013150A1 are fibrinogen-dependent enzymatic activity (amidolytic assay, plasminogen and S-2251) values, retold here.

This assay addresses plasminogen. The assay is described as follows: cell-based or functional assay.

Regarding “Bacteriophages which harbored K2S on gpIII (K2S-?) (from UniProt P00750 209-562)”, the fibrinogen-dependent enzymatic activity (amidolytic assay, plasminogen and S-2251) was below 0.25 IU/ml.
